Earlier results on two substances are cited in article PMC8801382.

Data set [1] concerns the target beta-globin (Homo sapiens) (UniProt P68871).
Data set [2] addresses alpha-globin (Homo sapiens) (UniProt P69905).

Chain of UniProt P68871 (P68871 2-147): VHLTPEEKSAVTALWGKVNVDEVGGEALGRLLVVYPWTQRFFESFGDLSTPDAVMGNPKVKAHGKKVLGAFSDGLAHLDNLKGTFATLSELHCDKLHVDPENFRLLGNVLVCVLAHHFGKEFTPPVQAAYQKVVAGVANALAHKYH

On to alpha-globin (from UniProt P69905), for which the Kd in data set [1] was 0.001 nM. As to AHSP (from UniProt Q9NZD4), the Kd in data set [2] was 17 nM.
